Paper PMC9482650, “Quantitative fragmentomics allow affinity mapping of interactomes” (Nature Communications, 2022)
Positions count from the first letter of the chain named.

Columns and labels:
Assay in all cases: holdup assay
Parameters in all cases: key: below the threshold = too weak to quantify, mostly under pKd 3.1 to 4
[1] = target: GRID2IP_1, A4D2P6
[2] = target: MAGI2_6, Q86UL8
[3] = target: TJP2_1, Q9UDY2
[4] = target: FRMPD4, Q14CM0
[5] = target: DLG2_2, Q15700
[6] = target: DLG1_1, Q12959
[7] = target: T1, SNTA1, Q13424
T1 sequence (Q13424 82-180, limits assumed, looked up): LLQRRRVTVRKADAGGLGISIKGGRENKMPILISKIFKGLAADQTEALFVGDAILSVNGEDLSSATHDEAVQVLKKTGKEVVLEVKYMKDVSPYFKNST

[8] = target: T2, NHERF3_3, Q5T2W1
T2 sequence (Q5T2W1 238-333, limits assumed, looked up): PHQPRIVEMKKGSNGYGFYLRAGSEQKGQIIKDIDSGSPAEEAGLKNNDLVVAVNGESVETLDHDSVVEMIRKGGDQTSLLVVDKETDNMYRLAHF

[9] = target: GRIP2_3, Q9C0E4
[10] = target: Inadl_2, Q8NI35
[11] = target: T3, GRIP1_4, Q9Y3R0
T3 sequence (Q9Y3R0 467-571, limits assumed, looked up): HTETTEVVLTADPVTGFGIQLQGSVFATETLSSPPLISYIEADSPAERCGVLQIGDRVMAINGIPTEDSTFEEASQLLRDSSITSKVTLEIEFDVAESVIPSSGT

[12] = target: GORASP2, Q9H8Y8
[13] = target: IL16_4, Q14005
[14] = target: DLG4_1, P78352
[15] = target: T4, APBA1_2, Q02410
T4 sequence (Q02410 742-832, limits assumed, looked up): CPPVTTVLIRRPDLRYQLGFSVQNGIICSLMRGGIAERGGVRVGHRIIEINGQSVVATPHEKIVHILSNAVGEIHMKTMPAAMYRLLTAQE

[16] = target: T5, PCLO, Q9Y6V0
T5 sequence (Q9Y6V0 4491-4600, limits assumed, looked up): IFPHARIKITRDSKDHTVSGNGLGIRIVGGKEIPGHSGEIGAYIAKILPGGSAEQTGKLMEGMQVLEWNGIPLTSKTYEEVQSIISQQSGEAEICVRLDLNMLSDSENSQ

[17] = target: T6, MPP2, Q14168
T6 sequence (Q14168 180-250, limits assumed, looked up): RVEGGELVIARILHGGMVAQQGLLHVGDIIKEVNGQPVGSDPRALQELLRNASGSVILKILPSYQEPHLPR

[18] = target: CASK, O14936
[19] = target: T7, ARHGAP21, Q5T5U3
T7 sequence (Q5T5U3 45-169, limits assumed, looked up): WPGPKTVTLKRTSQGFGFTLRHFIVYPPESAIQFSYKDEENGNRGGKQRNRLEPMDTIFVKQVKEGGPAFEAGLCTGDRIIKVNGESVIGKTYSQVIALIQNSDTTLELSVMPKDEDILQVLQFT

[20] = target: NHERF2_2, Q15599
[21] = target: MAGI3_2, Q5TCQ9
[22] = target: PDLIM1, O00151
[23] = target: FRMPD2_1, Q68DX3
[24] = target: T8, APBA2_2, Q99767
T8 sequence (Q99767 654-744, limits assumed, looked up): T4 sequence (Q02410 742-832, limits assumed, looked up) with R10K, R15K, P59A, H65Q, I66A, A70S, Y84F, A89G

[25] = target: LIMK2, P53671
[26] = target: ARHGEF12, Q9NZN5-2
[27] = target: T9, MPP6, Q9NZW5
T9 sequence (Q9NZW5 125-219, limits assumed, looked up): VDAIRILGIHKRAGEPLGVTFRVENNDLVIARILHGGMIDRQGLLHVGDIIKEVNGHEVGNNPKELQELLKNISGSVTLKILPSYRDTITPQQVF

[28] = target: MAGI2_4, Q86UL8
[29] = plain residues with an end cap or a label only (N-terminal biotin on a linker: ado-ado)
[30] = modified: acetyl on K at position -1 from the C-terminal residue

GRID2IP_1, A4D2P6, sequence (A4D2P6 1-87): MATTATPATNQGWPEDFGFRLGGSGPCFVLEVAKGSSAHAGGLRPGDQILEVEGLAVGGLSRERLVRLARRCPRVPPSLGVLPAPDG
MAGI2_4, Q86UL8, sequence (Q86UL8 772-865): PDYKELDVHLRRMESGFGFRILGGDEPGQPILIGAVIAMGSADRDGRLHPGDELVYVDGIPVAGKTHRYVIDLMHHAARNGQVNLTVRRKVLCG
GRIP2_3, Q9C0E4, sequence (Q9C0E4 238-339): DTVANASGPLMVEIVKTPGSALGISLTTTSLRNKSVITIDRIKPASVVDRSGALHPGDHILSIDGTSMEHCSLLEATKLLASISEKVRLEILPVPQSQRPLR
MAGI2_6, Q86UL8, sequence (Q86UL8 1141-1229): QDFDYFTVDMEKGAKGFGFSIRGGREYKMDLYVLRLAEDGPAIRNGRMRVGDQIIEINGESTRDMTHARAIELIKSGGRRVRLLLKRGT
NHERF2_2, Q15599, sequence (Q15599 142-238): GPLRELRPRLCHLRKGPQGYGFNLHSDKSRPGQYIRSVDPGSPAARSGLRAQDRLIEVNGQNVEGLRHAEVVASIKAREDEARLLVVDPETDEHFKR
DLG2_2, Q15700, sequence (Q15700 189-283): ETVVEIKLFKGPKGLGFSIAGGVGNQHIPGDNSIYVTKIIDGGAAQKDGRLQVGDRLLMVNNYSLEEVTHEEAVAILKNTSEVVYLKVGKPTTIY
IL16_4, Q14005, sequence (Q14005 1229-1329): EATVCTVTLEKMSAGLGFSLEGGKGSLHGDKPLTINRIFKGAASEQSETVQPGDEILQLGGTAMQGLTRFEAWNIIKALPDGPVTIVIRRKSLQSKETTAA
FRMPD2_1, Q68DX3, sequence (Q68DX3 770-861): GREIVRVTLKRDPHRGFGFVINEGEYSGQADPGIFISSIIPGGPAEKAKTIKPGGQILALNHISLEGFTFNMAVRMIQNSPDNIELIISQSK
DLG4_1, P78352, sequence (P78352 62-152): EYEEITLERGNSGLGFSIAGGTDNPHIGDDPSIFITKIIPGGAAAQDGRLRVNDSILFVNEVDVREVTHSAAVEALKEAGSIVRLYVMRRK
FRMPD4, Q14CM0, sequence (Q14CM0 67-160): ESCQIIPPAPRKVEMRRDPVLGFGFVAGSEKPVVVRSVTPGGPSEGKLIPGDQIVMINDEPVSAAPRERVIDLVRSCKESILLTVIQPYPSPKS
PDLIM1, O00151, sequence (O00151 1-87): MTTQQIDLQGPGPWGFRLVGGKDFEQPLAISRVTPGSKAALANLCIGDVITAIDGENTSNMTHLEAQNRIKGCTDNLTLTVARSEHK
LIMK2, P53671, sequence (P53671 143-248): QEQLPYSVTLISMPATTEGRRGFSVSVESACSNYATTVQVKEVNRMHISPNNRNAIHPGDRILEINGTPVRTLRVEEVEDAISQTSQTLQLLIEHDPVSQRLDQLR
ARHGEF12, Q9NZN5-2, sequence (Q9NZN5 other isoform, or with tags, fused parts or gaps): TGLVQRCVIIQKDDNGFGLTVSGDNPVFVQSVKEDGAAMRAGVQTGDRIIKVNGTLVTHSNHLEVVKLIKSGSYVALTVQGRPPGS
Inadl_2, Q8NI35, sequence (Q8NI35 238-335): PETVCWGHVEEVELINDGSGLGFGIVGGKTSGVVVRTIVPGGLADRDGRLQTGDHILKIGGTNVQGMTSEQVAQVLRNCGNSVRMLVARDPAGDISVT
TJP2_1, Q9UDY2, sequence (Q9UDY2 24-128): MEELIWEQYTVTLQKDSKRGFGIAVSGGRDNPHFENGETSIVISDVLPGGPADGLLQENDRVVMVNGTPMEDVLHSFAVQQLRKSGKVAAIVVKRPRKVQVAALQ
MAGI3_2, Q5TCQ9, sequence (Q5TCQ9 398-503): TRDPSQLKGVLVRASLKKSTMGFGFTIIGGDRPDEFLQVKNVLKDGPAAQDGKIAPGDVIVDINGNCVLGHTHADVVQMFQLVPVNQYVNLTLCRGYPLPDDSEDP
CASK, O14936, sequence (O14936 487-570): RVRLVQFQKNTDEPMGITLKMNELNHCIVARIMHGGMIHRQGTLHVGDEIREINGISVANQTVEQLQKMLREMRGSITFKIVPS

TMQMSLKDLL [GLA, P06280]
pKd [1, 29]: below the threshold | pKd [2, 29]: below the threshold | pKd [3, 29]: below the threshold | pKd [4, 29]: 3.67 | pKd [5, 29]: 3.62 | pKd [6, 29]: below the threshold | pKd [7, 29]: below the threshold | pKd [8, 29]: below the threshold | pKd [9, 29]: below the threshold | pKd [10, 29]: below the threshold | pKd [11, 29]: below the threshold | pKd [12, 29]: 3.51 | pKd [13, 29]: 3.69 | pKd [14, 29]: below the threshold | pKd [15, 29]: 3.53 | pKd [16, 29]: below the threshold | pKd [17, 29]: below the threshold | pKd [18, 29]: below the threshold | pKd [19, 29]: 3.54 | pKd [20, 29]: 3.62 | pKd [21, 29]: below the threshold | pKd [22, 29]: below the threshold | pKd [23, 29]: below the threshold | pKd [24, 29]: below the threshold | pKd [25, 29]: below the threshold | pKd [26, 29]: below the threshold | pKd [27, 29]: below the threshold | pKd [28, 29]: 3.53

RALRASESGI [ADGRE5, P48960]
pKd [1, 29]: below the threshold | pKd [2, 29]: below the threshold | pKd [3, 29]: below the threshold | pKd [4, 29]: below the threshold | pKd [5, 29]: below the threshold | pKd [6, 29]: below the threshold | pKd [7, 29]: below the threshold | pKd [8, 29]: below the threshold | pKd [9, 29]: below the threshold | pKd [10, 29]: below the threshold | pKd [11, 29]: below the threshold | pKd [12, 29]: below the threshold | pKd [13, 29]: below the threshold | pKd [14, 29]: below the threshold | pKd [15, 29]: below the threshold | pKd [16, 29]: below the threshold | pKd [17, 29]: below the threshold | pKd [18, 29]: below the threshold | pKd [19, 29]: 4.03 | pKd [20, 29]: below the threshold | pKd [21, 29]: below the threshold | pKd [22, 29]: below the threshold | pKd [23, 29]: below the threshold | pKd [24, 29]: below the threshold | pKd [25, 29]: below the threshold | pKd [26, 29]: below the threshold | pKd [27, 29]: 3.59 | pKd [28, 29]: below the threshold

LETREPTNTL [GRIP1, Q9Y3R0]
pKd [1, 29]: below the threshold | pKd [2, 29]: below the threshold | pKd [3, 29]: below the threshold | pKd [4, 29]: below the threshold | pKd [5, 29]: below the threshold | pKd [6, 29]: below the threshold | pKd [7, 29]: below the threshold | pKd [8, 29]: below the threshold | pKd [9, 29]: below the threshold | pKd [10, 29]: below the threshold | pKd [11, 29]: below the threshold | pKd [12, 29]: below the threshold | pKd [13, 29]: below the threshold | pKd [14, 29]: below the threshold | pKd [15, 29]: below the threshold | pKd [16, 29]: below the threshold | pKd [17, 29]: below the threshold | pKd [18, 29]: below the threshold | pKd [19, 29]: 4.04 | pKd [20, 29]: below the threshold | pKd [21, 29]: below the threshold | pKd [22, 29]: below the threshold | pKd [23, 29]: below the threshold | pKd [24, 29]: below the threshold | pKd [25, 29]: below the threshold | pKd [26, 29]: below the threshold | pKd [27, 29]: 3.61 | pKd [28, 29]: below the threshold

DEDQHTQITKV [PTEN_Ac, P60484]
pKd [1, 30]: below the threshold | pKd [2, 30]: 4.57 | pKd [3, 30]: 3.96 | pKd [4, 30]: below the threshold | pKd [5, 30]: 4.37 | pKd [6, 30]: 4.15 | pKd [7, 30]: 4.71 | pKd [8, 30]: below the threshold | pKd [9, 30]: below the threshold | pKd [10, 30]: 3.6 | pKd [11, 30]: below the threshold | pKd [12, 30]: 4.06 | pKd [13, 30]: below the threshold | pKd [14, 30]: 3.98 | pKd [15, 30]: 4.26 | pKd [16, 30]: below the threshold | pKd [17, 30]: below the threshold | pKd [18, 30]: below the threshold | pKd [19, 30]: below the threshold | pKd [20, 30]: 3.77 | pKd [21, 30]: 4.55 | pKd [22, 30]: below the threshold | pKd [23, 30]: below the threshold | pKd [24, 30]: below the threshold | pKd [25, 30]: below the threshold | pKd [26, 30]: 4.47 | pKd [27, 30]: below the threshold | pKd [28, 30]: 3.87
